Measured values taken from patent publication US20250339531A1, “DUX4 POLYPEPTIDES AND NUCLEIC ACIDS FOR TREATING INFLAMMATORY AND AUTOIMMUNE CONDITIONS” (Fred Hutchinson Cancer Center, priority 2021, published 2025).

Tested on: proteins that co-immunoprecipitated with DUX4-CTD constructs expressed in MB135 myoblasts
Test: LC-MS of proteins co-immunoprecipitated with DUX4-CTD (Table 1) and western validation
Assay type: binding, human
Set-up: key to 4. mL1dL2 + Dox + IFNG / 4. + IFNG mix / 4. longCTD + Dox + IFNG / 3. + IFNg + Dox longCTD / 3. + Dox longCTD / 3. + IFNG longCTD: peptide-spectrum matches (PSMs) per protein
Conditions: for 3. + Dox longCTD / 3. + IFNg + Dox longCTD: bait longCTD; for 3. + Dox longCTD: experiment 3, Dox only; for 3. + IFNg + Dox longCTD: experiment 3, IFNg + Dox; for SUM of PSMS: sum over all samples; for 4. longCTD + Dox + IFNG: LC-MS counts of the listed protein co-immunoprecipitated with DUX4-CTD bait longCTD, experiment 4, Dox + IFNG
Outline: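 Two independent experiments compared uninduced, doxycycline and doxycycline+IFNG MB135iDUX4-CTD (plus MB135iDUX4mL1dL2) myoblasts. Anti-FLAG pulldowns (3 h, 4 °C) were eluted in LDS buffer for western validation or with FLAG peptide for trypsin digestion and Orbitrap LC-MS; hits needed ≥2 PSMs in both experiments, ranked by total PSMs.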

Molecule | 3. + Dox longCTD | 3. + IFNg + Dox longCTD | SUM of PSMS | 4. longCTD + Dox + IFNG
P06702 (protein, UniProt P06702 1-114, looked up, full-length) MTCKMSQLERNIETIINTFHQYSVKLGHPDTLNQGEFKELVRKDLQNFLKKENKNEKVIEHIMEDLDTNADKQLSFEEFIMLMARLTWASHEKMHEGDEGPGHHHKPGLGEGTP | 1 | 1 | 4 | 
O43175 (protein, UniProt O43175 1-533, looked up, full-length) MAFANLRKVLISDSLDPCCRKILQDGGLQVVEKQNLSKEELIAELQDCEGLIVRSATKVTADVINAAEKLQVVGRAGTGVDNVDLEAATRKGILVMNTPNGNSLSAAELTCGMIMCLARQIPQATASMKDGKWERKKFMGTELNGKTLGILGLGRIGREVATRMQSFGMKTIGYDPIISPEVSASFGVQQLPLEEIWPLCDFITVHTPLLPSTTGLLNDNTFAQCKKGVRVVNCARGGIVDEGALLRALQSGQCAGAALDVFTEEPPRDRALVDHENVISCPHLGASTKEAQSRCGEEIAVQFVDMVKGKSLTGVVNAQALTSAFSPHTKPWIGLAEALGTLMRAWAGSPKGTIQVITQGTSLKNAGNCLSPAVIVGLLKEASKQADVNLVNAKLLVKEAGLNVTTSHSPAAPGEQGFGECLLAVALAGAPYQAVGLVQGTTPVLQGLNGAVFRPEVPLRRDLPLLLFRTQTSDPAMLPTMIGLLAEAGVRLLSYQTSLVSDGETWHVMGISSLLPSLEAWKQHVTEAFQFHF | 1 | 3 | 6 | 1
P25705 (protein, UniProt P25705 1-553, looked up, full-length) MLSVRVAAAVVRALPRRAGLVSRNALGSSFIAARNFHASNTHLQKTGTAEMSSILEERILGADTSVDLEETGRVLSIGDGIARVHGLRNVQAEEMVEFSSGLKGMSLNLEPDNVGVVVFGNDKLIKEGDIVKRTGAIVDVPVGEELLGRVVDALGNAIDGKGPIGSKTRRRVGLKAPGIIPRISVREPMQTGIKAVDSLVPIGRGQRELIIGDRQTGKTSIAIDTIINQKRFNDGSDEKKKLYCIYVAIGQKRSTVAQLVKRLTDADAMKYTIVVSATASDAAPLQYLAPYSGCSMGEYFRDNGKHALIIYDDLSKQAVAYRQMSLLLRRPPGREAYPGDVFYLHSRLLERAAKMNDAFGGGSLTALPVIETQAGDVSAYIPTNVISITDGQIFLETELFYKGIRPAINVGLSVSRVGSAAQTRAMKQVAGTMKLELAQYREVAAFAQFGSDLDAATQQLLSRGVRLTELLKQGQYSPMAIEEQVAVIYAGVRGYLDKLEPSKITKFENAFLSHVVSQHQALLGTIRADGKISEQSDAKLKEIVTNFLAGFEA | 1 | 2 | 17 | 4
P05141 (protein, UniProt P05141 1-298, looked up, full-length) MTDAAVSFAKDFLAGGVAAAISKTAVAPIERVKLLLQVQHASKQITADKQYKGIIDCVVRIPKEQGVLSFWRGNLANVIRYFPTQALNFAFKDKYKQIFLGGVDKRTQFWLYFAGNLASGGAAGATSLCFVYPLDFARTRLAADVGKAGAEREFRGLGDCLVKIYKSDGIKGLYQGFNVSVQGIIIYRAAYFGIYDTAKGMLPDPKNTHIVISWMIAQTVTAVAGLTSYPFDTVRRRMMMQSGRKGTDIMYTGTLDCWRKIARDEGGKAFFKGAWSNVLRGMGGAFVLVLYDEIKKYT |  | 3 | 9 | 6
Q00325 (protein, UniProt Q00325 1-362, looked up, full-length) MFSSVAHLARANPFNTPHLQLVHDGLGDLRSSSPGPTGQPRRPRNLAAAAVEEQYSCDYGSGRFFILCGLGGIISCGTTHTALVPLDLVKCRMQVDPQKYKGIFNGFSVTLKEDGVRGLAKGWAPTFLGYSMQGLCKFGFYEVFKVLYSNMLGEENTYLWRTSLYLAASASAEFFADIALAPMEAAKVRIQTQPGYANTLRDAAPKMYKEEGLKAFYKGVAPLWMRQIPYTMMKFACFERTVEALYKFVVPKPRSECSKPEQLVVTFVAGYIAGVFCAIVSHPADSVVSVLNKEKGSSASLVLKRLGFKGVWKGLFARIIMIGTLTALQWFIYDSVKVYFRLPRPPPPEMPESLKKKLGLTQ |  | 1 | 8 | 2
Q96MG2 (protein, UniProt Q96MG2 1-331, looked up, full-length) MSMTTRAWEELDGGLGSCQALEDHSALAETQEDRASATPRLADSGSVPHDSQVAEGPSVDTRPKKMEKEPAARGTPGTGKERLKAGASPRSVPARKKAQTAPPLQPPPPPPALSEELPWGDLSLNKCLVLASLVALLGSAFQLCRDAVPGEAALQARVPEPWVPPSSAPREPSSPLPKFEAQAPPSAPPAPRAEAEVRPKIPGSREAAENDEEEPGEATGEAVREDRVTLADRGPKERPRREGKPRKEKPRKEERPKKERPRKEERPRAAREPREALPQRWESREGGHRPWARDSRDAEPRKKQAWVSPRRPDEEQRPGSRQKLRAGKGRD | 4 | 10 | 18 | 3
O43865 (protein, UniProt O43865 1-530, looked up, full-length) MSMPDAMPLPGVGEELKQAKEIEDAEKYSFMATVTKAPKKQIQFADDMQEFTKFPTKTGRRSLSRSISQSSTDSYSSAASYTDSSDDEVSPREKQQTNSKGSSNFCVKNIKQAEFGRREIEIAEQDMSALISLRKRAQGEKPLAGAKIVGCTHITAQTAVLIETLCALGAQCRWSACNIYSTQNEVAAALAEAGVAVFAWKGESEDDFWWCIDRCVNMDGWQANMILDDGGDLTHWVYKKYPNVFKKIRGIVEESVTGVHRLYQLSKAGKLCVPAMNVNDSVTKQKFDNLYCCRESILDGLKRTTDVMFGGKQVVVCGYGEVGKGCCAALKALGAIVYITEIDPICALQACMDGFRVVKLNEVIRQVDVVITCTGNKNVVTREHLDRMKNSCIVCNMGHSNTEIDVTSLRTPELTWERVRSQVDHVIWPDGKRVVLLAEGRLLNLSCSTVPTFVLSITATTQALALIELYNAPEGRYKQDVYLLPKKMDEYVASLHLPSFDAHLTELTDDQAKYLGLNKNGPFKPNYYRY | 7 | 11 | 19 | 
A0A087WW87 (protein, UniProt A0A087WW87 1-121, looked up, full-length) MRLPAQLLGLLMLWVPGSSEDIVMTQTPLSLPVTPGEPASISCRSSQSLLDSDDGNTYLDWYLQKPGQSPQLLIYTLSYRASGVPDRFSGSGSGTDFTLKISRVEAEDVGVYYCMQRIEFP | 2 | 2 | 15 | 5
